Source: US20040115195A1

Biological target: PTH-1 receptor (human) (UniProt Q03431)
Experiment: cell-based or functional assay

Chain of UniProt Q03431 (Q03431 27-593): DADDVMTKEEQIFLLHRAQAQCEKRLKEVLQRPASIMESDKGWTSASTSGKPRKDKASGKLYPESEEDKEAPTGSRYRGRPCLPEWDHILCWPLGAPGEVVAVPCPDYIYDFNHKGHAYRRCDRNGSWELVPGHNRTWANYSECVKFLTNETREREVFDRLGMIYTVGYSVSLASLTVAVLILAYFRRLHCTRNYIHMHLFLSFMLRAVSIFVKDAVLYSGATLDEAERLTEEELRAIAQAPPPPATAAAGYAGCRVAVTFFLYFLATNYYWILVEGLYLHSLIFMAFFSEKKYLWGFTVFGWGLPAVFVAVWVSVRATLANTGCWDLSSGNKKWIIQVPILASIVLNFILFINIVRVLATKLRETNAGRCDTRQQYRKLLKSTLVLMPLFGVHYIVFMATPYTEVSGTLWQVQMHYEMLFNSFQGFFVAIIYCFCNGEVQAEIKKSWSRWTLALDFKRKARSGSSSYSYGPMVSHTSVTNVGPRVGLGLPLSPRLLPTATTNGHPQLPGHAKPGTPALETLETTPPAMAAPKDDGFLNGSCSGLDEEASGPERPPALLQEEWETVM

intracellular cAMP levels in hOB-01-C1-PS-09 cells preincubated 48 hr at 39 C, treated 10 min at 37 C: 5 to 6 fold
Substance: human PTH 1-34 (from UniProt P01270 32-65) (peptide)
